Experimental data from patent US20200123233A1.

Tests used:
[1] = biological target: Rabies virus glycoprotein G, Challenge Virus Standard (CVS)-11 strain (Rabies virus, strain CVS-11 (genotype 1 Lyssavirus)) (UniProt O92284); assay: cell-based or functional assay
[2] = biological target: Rabies virus glycoprotein G, strain CVS-11 (Challenge Virus Standard-11, ATCC VR 959) (Rabies virus, strain CVS-11); assay: cell-based or functional assay

Rabies virus glycoprotein G, Challenge Virus Standard (CVS)-11 strain (Rabies virus, strain CVS-11 (genotype 1 Lyssavirus)), sequence (O92284 20-524 limits assumed): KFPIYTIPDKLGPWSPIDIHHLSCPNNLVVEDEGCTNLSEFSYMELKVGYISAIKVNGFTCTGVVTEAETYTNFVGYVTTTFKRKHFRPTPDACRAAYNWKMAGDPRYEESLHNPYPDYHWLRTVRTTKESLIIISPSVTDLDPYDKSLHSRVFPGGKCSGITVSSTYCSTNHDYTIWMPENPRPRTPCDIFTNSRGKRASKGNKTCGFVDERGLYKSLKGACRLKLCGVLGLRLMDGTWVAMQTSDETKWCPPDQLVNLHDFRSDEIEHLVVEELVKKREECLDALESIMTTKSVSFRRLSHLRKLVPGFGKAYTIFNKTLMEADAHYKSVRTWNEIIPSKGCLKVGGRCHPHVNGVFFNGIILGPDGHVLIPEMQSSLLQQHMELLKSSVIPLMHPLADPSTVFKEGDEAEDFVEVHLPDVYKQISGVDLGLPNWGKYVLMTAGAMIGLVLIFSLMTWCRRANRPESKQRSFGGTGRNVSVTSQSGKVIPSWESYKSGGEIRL

B1: LG212F6 (VHH)
VHH: EVQLVESGGGLVQPGGSLRLSCAASGFTFGSYDMSWVRQAPGKGSEWVSHINTGGGSTTYADSVKGRFTISRDNAKNTLYLQMSSLKPEDTAVYYCATGLYGGSTDDYWGQGTQVTVSS
CVS-11 neutralizing antibody titer (RFFIT), IU/mg [1]: 114 IU/mg | CVS-11 neutralizing antibody titer (RFFIT), IU/ml [1]: 122 IU/ml | CVS-11 neutralizing antibody titer (RFFIT), IU/µM [1]: 1.71 IU/µM | CVS-11 neutralizing antibody titer (RFFIT), nM IC50 [1]: 17.7 nM

B2: 214-E8 25GS 212-C12 (VHH)
chain: EVQLVESGGGSVQAGGSLRLSCAASGGTFNPYVMAWFRQAPGNEREFVARIRWSGGDAYYDDSVKGRFAITRDAAKNTVHLQMNSLKPEDTAVYYCAAATYGYGSYTYGGSYDLWGQGTQVTVSSGGGGSGGGGSGGGGSGGGGSGGGGSEVQLVESGGGLVQPGGSLRLSCAASGFTFGSSDMSWVRQAPGKGPEWVSGINSGGGRTLYADSVKGRFTISRDNAKNTLYLQMNSLKSEDTAVYYCATDLYGSSWYTDYWSQGTQVTVSS
CVS neutralizing antibody titre (RFFIT): IU/mg [2]: 573 IU/mg | CVS neutralizing antibody titre (RFFIT): IU/ml [2]: 70.5 IU/ml | CVS neutralizing antibody titre (RFFIT): IU/nM [2]: 1.6 IU/nM | CVS neutralizing antibody titre (RFFIT): nM IC50 [2]: 1.94 nM | Potency (IU/nM) increase versus monovalent [2]: 1.5 fold

B3: 214-E8 5GS 212-C12 (VHH)
chain: EVQLVESGGGSVQAGGSLRLSCAASGGTFNPYVMAWFRQAPGNEREFVARIRWSGGDAYYDDSVKGRFAITRDAAKNTVHLQMNSLKPEDTAVYYCAAATYGYGSYTYGGSYDLWGQGTQVTVSSGGGGSEVQLVESGGGLVQPGGSLRLSCAASGFTFGSSDMSWVRQAPGKGPEWVSGINSGGGRTLYADSVKGRFTISRDNAKNTLYLQMNSLKSEDTAVYYCATDLYGSSWYTDYWSQGTQVTVSS
CVS neutralizing antibody titre (RFFIT): IU/mg [2]: 214 IU/mg | CVS neutralizing antibody titre (RFFIT): IU/ml [2]: 171 IU/ml | CVS neutralizing antibody titre (RFFIT): IU/nM [2]: 5.68 IU/nM | CVS neutralizing antibody titre (RFFIT): nM IC50 [2]: 5.65 nM | Potency (IU/nM) increase versus monovalent [2]: 5.2 fold

B4: LG212B12 (VHH)
VHH: EVQLVESGGGLVQPGGSLRLSCAASGFTFGNYDMSWVRQAPGKGPEWVSGINTGGSTLYADSVKGRFTISRDNAKNTLYLQMNSLKSEDTAVYYCAKDLYGSTWYTDYWSQGTQVTVSS
CVS-11 neutralizing antibody titer (RFFIT), IU/mg [1]: 20 IU/mg | CVS-11 neutralizing antibody titer (RFFIT), IU/ml [1]: 31 IU/ml | CVS-11 neutralizing antibody titer (RFFIT), IU/µM [1]: 0.3 IU/µM | CVS-11 neutralizing antibody titer (RFFIT), nM IC50 [1]: 101 nM

B5: 213-H7 15GS 213-H7 (VHH)
chain: EVQLVESGGGLVQAGGSLRLSCAASGRTLSSYRMGWFRQAPGKEREFISTISWNGRSTYYADSVKGRFIFSEDNAKNTVYLQMNSLKPEDTAVYYCAAALIGGYYSDVDAWSYWGPGTQVTVSSGGGGSGGGGSGGGGSEVQLVESGGGLVQAGGSLRLSCAASGRTLSSYRMGWFRQAPGKEREFISTISWNGRSTYYADSVKGRFIFSEDNAKNTVYLQMNSLKPEDTAVYYCAAALIGGYYSDVDAWSYWGPGTQVTVSS
CVS neutralizing antibody titre (RFFIT): IU/mg [2]: 549 IU/mg | CVS neutralizing antibody titre (RFFIT): IU/ml [2]: 412 IU/ml | CVS neutralizing antibody titre (RFFIT): IU/nM [2]: 15.4 IU/nM | CVS neutralizing antibody titre (RFFIT): nM IC50 [2]: 2.09 nM | Potency (IU/nM) increase versus monovalent [2]: 34.2 fold

B6: 214-F8 15GS 214-F8 (VHH)
chain: EVQLVESGGDLVQAGGSLRLSCVASGSTYSINAMGWYRQAPGKLRELVAAFRTGGSTDYADSVKGRFTISRDTAKNTVYLQMNSLKPEDTAVYYCNAEVIYYPYDYWGQGTQVTVSSGGGGSGGGGSGGGGSEVQLVESGGDLVQAGGSLRLSCVASGSTYSINAMGWYRQAPGKLRELVAAFRTGGSTDYADSVKGRFTISRDTAKNTVYLQMNSLKPEDTAVYYCNAEVIYYPYDYWGQGTQVTVSS
CVS neutralizing antibody titre (RFFIT): IU/mg [2]: 650 IU/mg | CVS neutralizing antibody titre (RFFIT): IU/ml [2]: 13 IU/ml | CVS neutralizing antibody titre (RFFIT): IU/nM [2]: 17.2 IU/nM | CVS neutralizing antibody titre (RFFIT): nM IC50 [2]: 1.79 nM | Potency (IU/nM) increase versus monovalent [2]: 63.7 fold

B7: 213-E6 25GS 212-C12 (VHH)
chain: EVQLVESGGGLVQAGASLRLSCAASGSTLSRYGVGWFRQAPGKERELVASVDWSGSRTYYADSVKGRFTISRDNAKNTGYLQMNSLKPDDTAVYYCAADSSVVPGIEKYDDWGLGTQVTVSSGGGGSGGGGSGGGGSGGGGSGGGGSEVQLVESGGGLVQPGGSLRLSCAASGFTFGSSDMSWVRQAPGKGPEWVSGINSGGGRTLYADSVKGRFTISRDNAKNTLYLQMNSLKSEDTAVYYCATDLYGSSWYTDYWSQGTQVTVSS
CVS neutralizing antibody titre (RFFIT): IU/mg [2]: 248 IU/mg | CVS neutralizing antibody titre (RFFIT): IU/ml [2]: 1290 IU/ml | CVS neutralizing antibody titre (RFFIT): IU/nM [2]: 6.7 IU/nM | CVS neutralizing antibody titre (RFFIT): nM IC50 [2]: 4.79 nM | Potency (IU/nM) increase versus monovalent [2]: 4.2 fold

B8: 213-E6 25GS 213-E6 (VHH)
chain: EVQLVESGGGLVQAGASLRLSCAASGSTLSRYGVGWFRQAPGKERELVASVDWSGSRTYYADSVKGRFTISRDNAKNTGYLQMNSLKPDDTAVYYCAADSSVVPGIEKYDDWGLGTQVTVSSGGGGSGGGGSGGGGSGGGGSGGGGSEVQLVESGGGLVQAGASLRLSCAASGSTLSRYGVGWFRQAPGKERELVASVDWSGSRTYYADSVKGRFTISRDNAKNTGYLQMNSLKPDDTAVYYCAADSSVVPGIEKYDDWGLGTQVTVSS
CVS neutralizing antibody titre (RFFIT): IU/mg [2]: 300 IU/mg | CVS neutralizing antibody titre (RFFIT): IU/ml [2]: 21 IU/ml | CVS neutralizing antibody titre (RFFIT): IU/nM [2]: 8.29 IU/nM | CVS neutralizing antibody titre (RFFIT): nM IC50 [2]: 3.76 nM | Potency (IU/nM) increase versus monovalent [2]: 6.4 fold

B9: 214-E8 15GS 213-H7 (VHH)
chain: EVQLVESGGGSVQAGGSLRLSCAASGGTFNPYVMAWFRQAPGNEREFVARIRWSGGDAYYDDSVKGRFAITRDAAKNTVHLQMNSLKPEDTAVYYCAAATYGYGSYTYGGSYDLWGQGTQVTVSSGGGGSGGGGSGGGGSEVQLVESGGGLVQAGGSLRLSCAASGRTLSSYRMGWFRQAPGKEREFISTISWNGRSTYYADSVKGRFIFSEDNAKNTVYLQMNSLKPEDTAVYYCAAALIGGYYSDVDAWSYWGPGTQVTVSS
CVS neutralizing antibody titre (RFFIT): IU/mg [2]: 8220 IU/mg | CVS neutralizing antibody titre (RFFIT): IU/ml [2]: 1890 IU/ml | CVS neutralizing antibody titre (RFFIT): IU/nM [2]: 230 IU/nM | CVS neutralizing antibody titre (RFFIT): nM IC50 [2]: 0.14 nM | Potency (IU/nM) increase versus monovalent [2]: 605 fold

B10: LG212C12 (VHH)
VHH: EVQLVESGGGLVQPGGSLRLSCAASGFTFGSSDMSWVRQAPGKGPEWVSGINSGGGRTLYADSVKGRFTISRDNAKNTLYLQMNSLKSEDTAVYYCATDLYGSSWYTDYWSQGTQVTVSS
CVS-11 neutralizing antibody titer (RFFIT), IU/mg [1]: 308 IU/mg | CVS-11 neutralizing antibody titer (RFFIT), IU/ml [1]: 394 IU/ml | CVS-11 neutralizing antibody titer (RFFIT), IU/µM [1]: 4.6 IU/µM | CVS-11 neutralizing antibody titer (RFFIT), nM IC50 [1]: 7.55 nM

B11: 213-E6 5GS 212-C12 (VHH)
chain: EVQLVESGGGLVQAGASLRLSCAASGSTLSRYGVGWFRQAPGKERELVASVDWSGSRTYYADSVKGRFTISRDNAKNTGYLQMNSLKPDDTAVYYCAADSSVVPGIEKYDDWGLGTQVTVSSGGGGSEVQLVESGGGLVQPGGSLRLSCAASGFTFGSSDMSWVRQAPGKGPEWVSGINSGGGRTLYADSVKGRFTISRDNAKNTLYLQMNSLKSEDTAVYYCATDLYGSSWYTDYWSQGTQVTVSS
CVS neutralizing antibody titre (RFFIT): IU/mg [2]: 385 IU/mg | CVS neutralizing antibody titre (RFFIT): IU/ml [2]: 385 IU/ml | CVS neutralizing antibody titre (RFFIT): IU/nM [2]: 10 IU/nM | CVS neutralizing antibody titre (RFFIT): nM IC50 [2]: 3.21 nM | Potency (IU/nM) increase versus monovalent [2]: 6.3 fold

B12: 214-E8 15GS 212-C12 (VHH)
chain: EVQLVESGGGSVQAGGSLRLSCAASGGTFNPYVMAWFRQAPGNEREFVARIRWSGGDAYYDDSVKGRFAITRDAAKNTVHLQMNSLKPEDTAVYYCAAATYGYGSYTYGGSYDLWGQGTQVTVSSGGGGSGGGGSGGGGSEVQLVESGGGLVQPGGSLRLSCAASGFTFGSSDMSWVRQAPGKGPEWVSGINSGGGRTLYADSVKGRFTISRDNAKNTLYLQMNSLKSEDTAVYYCATDLYGSSWYTDYWSQGTQVTVSS
CVS neutralizing antibody titre (RFFIT): IU/mg [2]: 322 IU/mg | CVS neutralizing antibody titre (RFFIT): IU/ml [2]: 998 IU/ml | CVS neutralizing antibody titre (RFFIT): IU/nM [2]: 8.7 IU/nM | CVS neutralizing antibody titre (RFFIT): nM IC50 [2]: 3.69 nM | Potency (IU/nM) increase versus monovalent [2]: 8 fold

B13: 213-E6 15GS 213-H7 (VHH)
chain: EVQLVESGGGLVQAGASLRLSCAASGSTLSRYGVGWFRQAPGKERELVASVDWSGSRTYYADSVKGRFTISRDNAKNTGYLQMNSLKPDDTAVYYCAADSSVVPGIEKYDDWGLGTQVTVSSGGGGSGGGGSGGGGSEVQLVESGGGLVQAGGSLRLSCAASGRTLSSYRMGWFRQAPGKEREFISTISWNGRSTYYADSVKGRFIFSEDNAKNTVYLQMNSLKPEDTAVYYCAAALIGGYYSDVDAWSYWGPGTQVTVSS
CVS neutralizing antibody titre (RFFIT): IU/mg [2]: 4250 IU/mg | CVS neutralizing antibody titre (RFFIT): IU/ml [2]: 3760 IU/ml | CVS neutralizing antibody titre (RFFIT): IU/nM [2]: 93.7 IU/nM | CVS neutralizing antibody titre (RFFIT): nM IC50 [2]: 0.26 nM | Potency (IU/nM) increase versus monovalent [2]: 107 fold

B14: NB6-18GS-NB6 (VHH)
chain: EVQLVESGGGLVQAGGSLRLSCAASGPTFSADTMGWFRQAPGKEREFVATIPWSGGIAYYSDSVKGRFTMSRDNAKNTVDLQMNSLKPEDTALYYCAGSSRIYIYSDSLSERSYDYWGQGTQVTVSSGGGGSGGGGSGGGGGGGSEVQLVESGGGLVQAGGSLRLSCAASGPTFSADTMGWFRQAPGKEREFVATIPWSGGIAYYSDSVKGRFTMSRDNAKNTVDLQMNSLKPEDTALYYCAGSSRIYIYSDSLSERSYDYWGQGTQVTVSSAAAEQKLISEEDLNGAAHHHHHH
CVS neutralizing antibody titre (RFFIT): IU/mg [2]: < 2.38 IU/mg | CVS neutralizing antibody titre (RFFIT): IU/ml [2]: < 0.5 IU/ml | CVS neutralizing antibody titre (RFFIT): IU/nM [2]: < 0.07 IU/nM | CVS neutralizing antibody titre (RFFIT): nM IC50 [2]: > 725 nM

B15: 213-E6 25GS 214-E8 (VHH)
chain: EVQLVESGGGLVQAGASLRLSCAASGSTLSRYGVGWFRQAPGKERELVASVDWSGSRTYYADSVKGRFTISRDNAKNTGYLQMNSLKPDDTAVYYCAADSSVVPGIEKYDDWGLGTQVTVSSGGGGSGGGGSGGGGSGGGGSGGGGSEVQLVESGGGSVQAGGSLRLSCAASGGTFNPYVMAWFRQAPGNEREFVARIRWSGGDAYYDDSVKGRFAITRDAAKNTVHLQMNSLKPEDTAVYYCAAATYGYGSYTYGGSYDLWGQGTQVTVSS
CVS neutralizing antibody titre (RFFIT): IU/mg [2]: 657 IU/mg | CVS neutralizing antibody titre (RFFIT): IU/ml [2]: 46 IU/ml | CVS neutralizing antibody titre (RFFIT): IU/nM [2]: 1.84 IU/nM | CVS neutralizing antibody titre (RFFIT): nM IC50 [2]: 1.68 nM | Potency (IU/nM) increase versus monovalent [2]: 2.3 fold
